In patent US11667697 (VANDERBILT UNIVERSITY, dated 2023):

Tests used:
[1] = biological target: T1, VACV D8 protein (vaccinia virus, UniProt P04195 1-261); experiment: lysate ELISA
T1 sequence: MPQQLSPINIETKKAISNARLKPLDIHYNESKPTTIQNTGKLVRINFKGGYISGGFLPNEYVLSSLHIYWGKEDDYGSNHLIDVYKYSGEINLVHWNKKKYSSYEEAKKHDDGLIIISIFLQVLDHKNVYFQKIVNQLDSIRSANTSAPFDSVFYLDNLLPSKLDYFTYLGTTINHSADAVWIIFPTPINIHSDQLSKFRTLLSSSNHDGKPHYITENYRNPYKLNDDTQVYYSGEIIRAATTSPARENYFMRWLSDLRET

[2] = biological target: T1, VACV D8 protein; experiment: cell-based or functional assay
[3] = biological target: T2, VACV A27 protein (vaccinia virus, UniProt P11258 1-110); experiment: purified antigen ELISA
T2 sequence: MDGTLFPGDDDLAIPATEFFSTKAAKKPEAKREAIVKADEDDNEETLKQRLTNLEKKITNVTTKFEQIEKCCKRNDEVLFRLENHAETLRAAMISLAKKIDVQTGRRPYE

[4] = biological target: T2, VACV A27 protein; experiment: lysate ELISA
[5] = biological target: T2, VACV A27 protein; experiment: cell-based or functional assay
[6] = biological target: T3, VACV B5 protein (vaccinia virus, UniProt Q01227 20-275); experiment: purified antigen ELISA
[7] = biological target: T3, VACV B5 protein; experiment: cell-based or functional assay
[8] = biological target: T3, VACV B5 protein; experiment: lysate ELISA
[9] = biological target: VACV A33 protein (vaccinia virus, UniProt P68617 58-185); experiment: purified antigen ELISA

B1: VACV-8 (antibody, V domains shown)
VH: QVQLQQWGAGLLKPSETLSLTCAGYGGSFSGYFWSWIRQPPGKGLEWIGEINHSGSTDYNPSLKSRVTISLDTSKTQFSLKLSSVTAADTAVYYCARVMTGITNYYYYYGMDVWGQGTTVTF
VL: DIQLTQSPSFLSASVGDRVTITCRASQDISSYLAWYQQKPGKAPKLLIYAASTLQSGVPSRFSGSESGTEFTLTISSLQPENFATYYCQHLNSYPRGYTFGQGTKVDIK
notes: human IgG1, anti-D8
- EC50 [1]: 0.04 µg/mL
- PRNT Emax, VACV MV+C' [2]: 74%
- PRNT IC50, VACV MV+C' [2]: 0.3 µg/mL

B2: VACV-136 (antibody, V domains shown)
V domain 1: QVTLKESGPVLVNPTETLTLTCTVSGFSLSNARMRVSWIRQPPGKALEWLAHIFSNDEKSYSTSLKSRLTISKDTSKSQVVLTMTNMDPVDTASYYCARMRGEYNSYYFDSWGQGTLVTVS
V domain 2: SYELTQPPSVSVSPGQTARITCSGDALPNQYAYWYQQKPGQAPVLVIYKDSERPSGIPERFSGSSSGTTVTLTISGVQAEDEADYYCQSADSSGTSVVFGGGTQVTV
notes: human IgG1, anti-D8
- EC50 [1]: 0.06 µg/mL
- PRNT Emax, VACV MV+C' [2]: 84%
- PRNT IC50, VACV MV+C' [2]: 0.4 µg/mL

B3: VACV-301 (antibody, V domains shown)
VH: EVQLLESGGGLVQPGGSLRLSCAASGFSFSSYAMSWVRQAPGKGLEWVSGIGNSGDRTFYADSAKGRFTIFRDNSNNRLYLQMNSLRAADTAVYYCAKWGRFESGAFWGQGVLVTVSS
VL: SYELTQSPSVSVSPGQTARITCSGDALPEQYAYWYQQKPGQAPVLVIYKDSERPSGIPERFSGSGSGTTVTLTITGVQAEDEADYYCQSADNSGTYEVFGTGTKVTVL
notes: human IgG3, anti-A27
- EC50 [3]: 0.03 µg/mL
- EC50 [4]: > 21 µg/mL
- PRNT Emax, VACV MV [5]: 61%
- PRNT Emax, VACV MV+C' [5]: 77%
- PRNT IC50, VACV MV [5]: 0.5 µg/mL
- PRNT IC50, VACV MV+C' [5]: 0.1 µg/mL

B4: VACV-302 (antibody, V domains shown)
VH: QLQLQESGPGLVKPSETLSLTCTVSGGSIISSSYYWGWIRQPPGKGLEWLGSIYYSGSTYYNPSLKSRVTISVDTSKNQFSLKVTSVTAADTAVYYCARQISKAAAGSIDYWGQGTLVTVS
VL: not shown
notes: human IgG1, anti-A27
- EC50 [3]: 0.08 µg/mL
- EC50 [4]: 0.01 µg/mL
- PRNT Emax, VACV MV [5]: 81%
- PRNT Emax, VACV MV+C' [5]: 53%
- PRNT IC50, VACV MV [5]: 12.3 µg/mL
- PRNT IC50, VACV MV+C' [5]: 0.1 µg/mL

B5: VACV-230 (antibody, V domains shown)
VH: QVQLVQSGAEVKKPGASVKVSCKVSGYTLTELSMHWVRQAPGKGLEWLGGFDPEDGETIYAQKFQGRVTMTEDTSTDTAYMELSSLRSEDTAVYYCARESWLRGFDYWGQGTLVTVS
VL: not shown
notes: human IgG1, anti-D8
- EC50 [1]: 0.6 µg/mL
- PRNT Emax, VACV MV+C' [2]: 77%
- PRNT IC50, VACV MV+C' [2]: 0.1 µg/mL

B6: VACV-56 (antibody, V domains shown)
VH: QVQLQQWGAGLLKPSETLSLTCAVYGGSFSGYYWSWIRQPPGKGLEWIGEINHSGSTNYNPSLKSRVTISVDTSKSQFSLKLSSVTAADTAVYYCARATQGSGTYKLFFYSYGMDVWGQGTTVTVSS
VL: not shown
notes: human IgG1, anti-D8
- EC50 [1]: 0.01 µg/mL
- PRNT Emax, VACV MV+C' [2]: 81%
- PRNT IC50, VACV MV+C' [2]: 0.04 µg/mL

B7: VACV-59 (antibody, V domains shown)
VH: QVQLVQSGGGLVKPGGSLRLSCAASGFTFSDYYMSWIRQAPGKGLEWVSYISTSGSTIYYADSVKGRFTISRDNAKNSLYLQMNSLRAEDTAMYYCARDGDGSGSYTPPYYYYGLDVWGQGTTVTVSS
VL: DIQMTQSPSSLSASVGDRVTITCRASQSIRNYLNWYQQKSGKAPKLLIYAASSLQSGVPSRFSGSGSGTDFTLTISSLHPEDFATYYCQQSYSTPPLTFGGGTKVEIK
notes: human IgG2, anti-B5
- EC50 [6]: 0.14 µg/mL
- PRNT Emax, VACV EV+C' [7]: 72%
- PRNT IC50, VACV EV+C' [7]: 0.2 µg/mL

B8: MPXV-2 (antibody, V domains shown)
VH: QVQLVQSGAEVKKPGASVKVSCKTSGYTFTTYAVHWVRQAPGQRLEWMGWINPGDGDTRYAQKFQDRVTISSDTSATTVYMELSSLRSEDTAVYFCARPRASLLRYFDWLFEQWGQETLVTVSS
VL: EIVLTQSPGTLSLSPGDRATLSCGASQSIHHNYVAWYQQRPGQAPRLLIFGASSRATGIPDRFTGSGSGTEFTLTINRLEPEDFAVYYCQQYGNSVPYSFGQGTKVDIK
notes: human IgG1, anti-B5
- EC50 [6]: 0.03 µg/mL
- EC50 [8]: > 6 µg/mL
- PRNT Emax, VACV EV+C' [7]: 67%
- PRNT IC50, VACV EV+C' [7]: 1 µg/mL

B9: MPXV-30 (antibody, V domains shown)
VH: QVQLVQSGAEVKKPGSSVKVSCKVSGGTFSSLAINWVRQAPGQGLEWMGGIIPIFGKANYAQKFQGRVSIIADESTSTAYMDLSSLRFEDTAVYYCATGGNIRVHDFDIWGQGTLVIVSS
VL: not shown
notes: human IgG1, anti-D8
- EC50 [1]: 0.004 µg/mL

B10: MPXV-61 (antibody, V domains shown)
V domain 1: QVQLVQSGAEVKKPGSSVKVSCKASGETFSRYAFSWVRLAPGQGLEWLGRIIPFIDIPNYAQKFQGRVTITADKSTSTAYMELSSLRSEDTAVYYCASSLPSTYYFGSGNYPWGNWLDPWGQGTLVTVSS
V domain 2: QSVVTQPPSVSAAPGQNVTISCSGSSSNIGNNYVSWYHQLPGTAPKLLIYDNDKRPSGIPDRFSGSKSGTSATLGITGLQTGDEADYYCGTWDSSLSEVVFGGGTQVTVL
notes: human IgG1, anti-D8
- EC50 [1]: 0.007 µg/mL

B11: MPXV-96 (antibody, V domains shown)
VH: QVQLQQWGAGLLISSETLSLTCGVYGGSFSGYYWTWIRQPPGKGLEWIGEINYVGSTNYNPSLKSRVTMSVDTSKNHFSLSLSSVTAADTAVYYCARGLRGNSVCFDWGPGTLV
VL: ELVMTQSPATLSVSPGERASLSCRASQSVSSNLAWYQQKPGQAPRLLIYGASTRATGLPARFSGSGSGTEFTLTISSLQSEDFAIYYCQQYNNWPRTFGQGTKVDI
notes: human IgG1, anti-D8
- EC50 [1]: 0.001 µg/mL

B12: VACV-1 (antibody, V domains shown)
VH: EVQLVESGGGLVQPGESLKISCAASGFTFSSFSMNWVRQAPGKGLEWVSYISSSSSTIYYADSVKGRFTISRDNAKNSLYLQMNSLRDEDTAVYYCARRSVGCSGGNCYAYYYGMDVWGQGTTVTVS
VL: not shown
notes: human IgG1, anti-B5
- EC50 [6]: 0.02 µg/mL

B13: VACV-282 (antibody, V domains shown)
VH: EVQLVESGGGLVKPGGSLRLSCAASGFTFSSYSMNWVRQAPGKGLEWVSSISSISSYIYYADSVKGRFTISRDNAKNSLYLQMNSLRAEDTAVYYCARDRPRSRPNSGSYFWYYYGMDVW
VL: SYELTQPPSVSVAPGQTARITCGGNNIGSKSVHWYQQKPGQAPVLVVYDDSDRPSGIPERFSGSNSGNTATLTISRVEAGDEADYYCQVWDSNSDHRVSA
notes: human IgG1, anti-B5
- EC50 [6]: 0.155 µg/mL

B14: MPXV-12 (antibody, V domains shown)
VH: QVQLQQWGAGLLKPSETLSLTCAVYGGSFTNYYWSWIRQFPGKGLEYIGEIDHSGSANYNPSLKSRVTISLDTSKNQFSLRLSSVTAADTAVYFCARDVYGSGTYYWFDPWGQGTL
VL: DIQMTQSPTSLSASVGDRVTITCRASQRISSHLNWYQQKPGKAPKLLIYVASSLQSGVPSRFSGSGSGTDYTLTISSLQPEDFATYFCQQSYTTPYTFGQGTNLQMK
notes: human IgG3, anti-B5
- EC50 [6]: 0.1 µg/mL
- EC50 [8]: 5.85 µg/mL

B15: MPXV-43 (antibody, V domains shown)
VH: QVQLVQSGAEVKKPGASVKVSCKASGYTFTKYTIHWVRQAPGQRLEWVGGIYAGYGNTRYSQKFQGRVTITRDTSASTAYMELSSLRSEDTAVYFCARDFEDFDSWTGYYSWLHWGQGTLVTVSS
VL: EIVLTQSPGTLSLSPGERATLSCRASQSVSSTYLAWYQQKPGQAPRLLIYGASSRATGIPDRFSGSGSGTDFTLTITRLEPEDFAMYFCQQYDSSPSITFGQGTRLEIK
notes: human IgG1, anti-B5
- EC50 [6]: 10.1 µg/mL
- EC50 [8]: 0.011 µg/mL

B16: MPXV-39 (antibody, V domains shown)
VH: QVQLQQWGAGLLKPSETLSLTCAIYGGSLSGQYWSWIRQPPGRGLEWIGEIHHKGRTNYNPSLKSRVTISIDTSQRQFSLRLTSVSAADTAVYYCASGNYRLGQGTLVTF
VL: DVVLTQSPLTLPVTLGQPASISCRSSQSLVYSDGDTYLNWFQQRPGQAPRRLIYKVSKRDFGVPDRFSGSGSGTDFTLRISRVEAEDVGVYYCMQGTHWPRTFGQGTQVDIK
notes: human IgG3, anti-A33
- EC50 [9]: 0.07 µg/mL

B17: VACV-154 (antibody, V domains shown)
VH: EVQLLESGGGLVQPGESLRLSCAASGFTLRNYAMSWVRQTPGKGLEWVSAISGSGGSTYYADSVKGRFTISRDTSKNTLYVQMNSLRAEDTAVYYCAKIRLDSSGYSGAFDIWGQGTRVTVSS
VL: SYELTQPPSVSVSPGQTARITCSGDALPKQYASWYQQKPGQAPVLVIYKDSERPSGIPERFSGSSSGTTVTLTISGVQAEDEADYYCQSADSSGTYPVVFGGGTQLTVL
notes: human IgG1, anti-A27
- EC50 [3]: 0.06 µg/mL
- EC50 [4]: > 0.1 µg/mL

B18: VACV-300 (antibody, V domains shown)
V domain 1: QVQLVQSGAEVKKPGSSVKVSCKASGGTFSSYAISWVRQAPGQGLEWMGGIIPIFGTANYAQKFQGRVTITADESTGTAYMELTSLRSEDTAIYYCARASEQWLASINWFDPWGQGTLVTVSS
V domain 2: QSALTQPASVSGSPGQSITISCTGTSSDVGSYNLVSWYQQHPGKAPKLMIYEVSKRPSGVSNRFSASKSGNTASLTISGLQAEDEADYYCCSYAGSSTLVFGGGTQVTVL
notes: human IgG1, anti-A27
- EC50 [3]: 0.22 µg/mL
- EC50 [4]: > 0.37 µg/mL

B19: VACV-303 (antibody, V domains shown)
VH: EVQLLESGGGLVQPGGSLRLSCAASGFTFSSYAMSWVRQAPGKGLEWVSAISGTGGNTYYADSVKGRFTISRDKSKNTLYLQMHSLRAEDTAVYYCATSLIWWLQSDYWGQGTLVTVSS
VL: DIQMTQSPSSLSASVGDRVTITCRASQSIASYLIWYQQKPGNAPKLLIYAASSLQSGVPSRFSGSGSGTDFTLTISSLQPEDFATYYCQQSYSTPQTFGQGTKVDIK
notes: human IgG1, anti-A27
- EC50 [3]: 0.02 µg/mL
- EC50 [4]: 0.05 µg/mL
